Laboratory results published in patent US20150274841A1 (DYAX, published 2015).
Where a chain is given by its changes, count along the chain named.

B1: X133-F10 (Fab, V domains shown)
VH: EVQLLESGGGLVQPGGSLRLSCAASGFTFSHYIMMWVRQAPGKGLEWVSGIYSSGGITVYADSVKGRFTISRDNSKNTLYLQMNSLRAEDTAVYYCAYRRTGLPRRDAFDIWGQGTMVTVSS
VL: DIQMTQSPSTLSASVGDRVTITCRASQSISSWLAWYQQKPGKAPNLLIYKASTLESGVPSRFSGSGSGTEFTLTISSLQPDDFATYYCQQYNTYWTFGQGTKVEIK
B2: X135-A03 (Fab, V domains shown)
VH: B1 VH with L103I, A108E
VL: B1 VL
notes: HC CDR3 variant of M0162-A04, tested as Fab
B3: X133-G05 (Fab, V domains shown)
VH: B1 VH with L103S
VL: B1 VL
B4: M0202-A08 (Fab, V domains shown)
VH: B1 VH with L103I, R106W
VL: B1 VL
B5: M0201-A07 (Fab, V domains shown)
VH: B1 VH with L103V, A108E
VL: B1 VL
B6: X135-A01 (Fab, V domains shown)
VH: B1 VH with L103A
VL: B1 VL
B7: M0202-D09 (Fab, V domains shown)
VH: B1 VH with T101I, L103V, A108S
VL: B1 VL
B8: M0202-E03 (Fab, V domains shown)
VH: B1 VH with L103I, D110E
VL: B1 VL
B9: M0202-C02 (Fab, V domains shown)
VH: B1 VH with T101P, L103V
VL: B1 VL
B10: M0200-D03 (Fab, V domains shown)
VH: B1 VH with T101I, L103V, A108S, I111M
VL: B1 VL
B11: M0199-All (Fab, V domains shown)
VH: B1 VH with T101R, L103I
VL: B1 VL
B12: M0199-B01 (Fab, V domains shown)
VH: B1 VH with L103I, I111N
VL: B1 VL
B13: M0200-B01 (Fab, V domains shown)
VH: B1 VH with L103I, I111S
VL: B1 VL
B14: M0202-E06 (Fab, V domains shown)
VH: B1 VH with T101R, L103V, A108D
VL: B1 VL
B15: M0201-H06 (Fab, V domains shown)
VH: B1 VH with L103V
VL: B1 VL
B16: M0202-H03 (Fab, V domains shown)
VH: B1 VH with L103V, R106W, A108D
VL: B1 VL
B17: M0202-B04 (Fab, V domains shown)
VH: B1 VH with T101S, L103V
VL: B1 VL
B18: M0201-F11 (Fab, V domains shown)
VH: B1 VH with T101S, L103I
VL: B1 VL
B19: M0202-009 (Fab, V domains shown)
VH: B1 VH with T101I, L103V, A108D
VL: B1 VL
B20: M0201-H08 (Fab, V domains shown)
VH: B1 VH with L103V, F109L, I111N
VL: B1 VL
notes: as for B2
B21: M0199-A08 (Fab, V domains shown)
VH: B1 VH with T101I, L103V, A108E
VL: B1 VL
notes: also called M199-A08
B22: M0202-H05 (Fab, V domains shown)
VH: B1 VH with L103V, A108V
VL: B1 VL
notes: as for B2
B23: M0200-H07 (Fab, V domains shown)
VH: B1 VH with L103V, D107N, I111N
VL: B1 VL
notes: as for B2
B24: M0200-A10 (Fab, V domains shown)
VH: B1 VH with L103V, A108S
VL: B1 VL
notes: as for B2
B25: M0202-Al2 (Fab, V domains shown)
VH: B1 VH with R99Q, L103V, A108S, D110N
VL: B1 VL
notes: HC CDR3 variant of M0162-A04, tested as Fab; also called M0202-A12 (probable reading)
B26: M0200-E11 (Fab, V domains shown)
VH: B1 VH with L103V, I111N
VL: B1 VL
notes: as for B2
B27: M0202-G03 (Fab, V domains shown)
VH: B1 VH with L103V, A108S, D110E
VL: B1 VL
notes: as for B2
B28: M0201-A06 (Fab, V domains shown)
VH: B1 VH with L103I, A108V
VL: B1 VL
notes: as for B2
B29: X133-B02 (Fab, V domains shown)
VH: B1 VH with T101I, L103I
VL: B1 VL
notes: as for B2
B30: M0202-A01 (Fab, V domains shown)
VH: B1 VH with T101I, L103V
VL: B1 VL
notes: as for B2
B31: X133-D06 (Fab, V domains shown)
VH: B1 VH with T101I, L103I, A108E
VL: B1 VL
notes: as for B2
B32: M0202-F06 (Fab, V domains shown)
VH: B1 VH with L103V, R106W
VL: B1 VL
notes: as for B2

These binders were tested against T1, human plasma kallikrein (PKal) (human, UniProt P03952 20-638) (assay: enzyme inhibition assay: rate (F/s) of substrate peptide cleavage by PKal against [Fab] (nM), fitted to the Morrison equation; apparent Ki (Ki,app); Table 3 prints it rounded, 14.7 nM).
T1 construct: Active PKal is cleaved at the marked R/I site into two disulfide-linked chains; also called human Pkal; active PKal
T1 sequence (P03952 20-638 limits assumed): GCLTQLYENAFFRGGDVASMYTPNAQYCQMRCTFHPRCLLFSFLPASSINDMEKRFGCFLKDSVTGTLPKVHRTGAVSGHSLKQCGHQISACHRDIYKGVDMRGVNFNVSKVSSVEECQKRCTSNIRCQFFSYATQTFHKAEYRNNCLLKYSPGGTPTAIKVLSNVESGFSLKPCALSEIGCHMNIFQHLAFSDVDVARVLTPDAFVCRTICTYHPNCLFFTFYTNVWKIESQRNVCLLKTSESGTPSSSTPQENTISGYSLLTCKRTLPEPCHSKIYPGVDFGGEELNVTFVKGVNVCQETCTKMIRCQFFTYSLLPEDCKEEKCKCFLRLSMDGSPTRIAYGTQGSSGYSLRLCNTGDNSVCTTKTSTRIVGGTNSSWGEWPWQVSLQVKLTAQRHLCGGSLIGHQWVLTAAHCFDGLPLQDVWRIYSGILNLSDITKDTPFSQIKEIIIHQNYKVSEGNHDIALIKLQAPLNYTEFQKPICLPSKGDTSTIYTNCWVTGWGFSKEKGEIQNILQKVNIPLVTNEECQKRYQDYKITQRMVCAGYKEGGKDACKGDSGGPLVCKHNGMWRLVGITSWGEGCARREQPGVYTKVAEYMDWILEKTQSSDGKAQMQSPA
In the case of B1, the Ki is reported as 14.7 nM.

The binders below were run against T1, human plasma kallikrein (PKal) (assay: enzyme inhibition assay: rate (F/s) of substrate peptide cleavage by PKal against [Fab] (nM), fitted to the Morrison equation; apparent Ki (Ki,app); Table 3 prints 1.1 nM).
Experimental: (§1) Briefly, PKal and a Fab at various concentrations are incubated together for 1 hour at 30° C. A substrate peptide (cleavable by PKal) is then added to this PKal-Fab mixture. The rate of substrate peptide cleavage/proteolysis is then measured, and plotted against the concentrations of the Fab. This plot is then fit to the Morrison equation, which calculates the K_{i,app} value. The results thus obtained are shown in FIGS. 5A-5D and Table 3 below: […]
B2 gave a Ki of 1.25 nM.

The binders below were run against T1, human plasma kallikrein (PKal) (assay: Ki,app; Fab inhibition of PKal cleavage of a substrate peptide, Morrison fit).
Experimental: as §1
B3 showed a Ki of 1410 nM. In the case of B4, the Ki is reported as 2.8 nM. In the case of B5, the Ki is reported as 0.1 nM. Work on B6 yielded a Ki of 248 nM. B7 gave a Ki of 0.2 nM. Binder B8 has a Ki of 2 nM. In the case of B9, the Ki is reported as 0.6 nM. B10 gave a Ki of 0.1 nM. For B11, the Ki was 2 nM. For B12, the Ki was 1.6 nM. B1 was tested, and the Ki was 14.7 nM. B13 showed a Ki of 3.6 nM. Work on B14 yielded a Ki of 0.06 nM. Work on B15 yielded a Ki of 0.6 nM. B16 was tested, and the Ki was 0.1 nM. With B17 the Ki was 0.2 nM. In the case of B18, the Ki is reported as 3 nM. B19 showed a Ki of 0.06 nM. B2 was tested, and the Ki was 1.1 nM. Binder B20 has a Ki of 0.8 nM. Binder B21 has a Ki of 0.06 nM. For B22, the Ki was 0.26 nM. B23 showed a Ki of 0.4 nM. For B24, the Ki was 0.25 nM. B25 gave a Ki of 0.1 nM. For B26, the Ki was 0.4 nM. Binder B27 has a Ki of 0.4 nM. In the case of B28, the Ki is reported as 3.8 nM. With B29 the Ki was 2.2 nM. B30 gave a Ki of 0.3 nM. B31 showed a Ki of 0.33 nM. With B32 the Ki was 0.33 nM.

What follows are binders tested against T1, human plasma kallikrein (PKal) (assay: enzyme inhibition assay: rate (F/s) of substrate peptide cleavage by PKal against [Fab] (nM), fitted to the Morrison equation; apparent Ki (Ki,app); Table 3 prints it rounded, 2.2 nM).
Experimental: as §1
B29 gave a Ki of 2.22 nM.

These binders were tested against T1, human plasma kallikrein (PKal) (assay: enzyme inhibition assay: rate (F/s) of substrate peptide cleavage by PKal against [Fab] (nM), fitted to the Morrison equation; apparent Ki (Ki,app); Table 3 prints 0.33 nM).
Experimental: as §1
Binder B31 has a Ki of 0.301 nM.

Each binder was assayed against T1, human plasma kallikrein (PKal) (assay: enzyme inhibition assay: rate (F/s) of substrate peptide cleavage by PKal against [Fab] (nM), fitted to the Morrison equation; apparent Ki (Ki,app); Table 3 prints it rounded, 1405.6 nM).
B3 gave a Ki of 1410 nM.

The binders below were run against T1, human plasma kallikrein (PKal) (assay: enzyme inhibition assay: rate (F/s) of substrate peptide cleavage by PKal against [2930] (pM), fitted to the Morrison equation; apparent Ki (Ki,app); no unit stands beside the value, pM is the unit of the concentration axis; Table 3 prints 0.06 nM).
Experimental: as §1
Binder B21 has a Ki of 0.099 nM.
